Measured values from patent US9187525B2, “Methods of treating ophthalmic diseases using NPR-B agonists” (Shire Orphan Therapies GmbH, dated 2015).
Numbered stars: 1 amine (or outer) side, 2 acyl side, 3 side chain; on linkers, the order of the positions; unused ones are H or OH. Square brackets hold non-standard residues; d marks the D form. Ends that are not written are not given here. * marks the point of attachment. Dtp = (R)-2,2-dimethylthiazolidine-4-carboxylic acid, CC1(C)SC[C@@H](C(=O)[*:2])N1[*:1]; Ebe = (R)-2-amino-3-(methylsulfanyl)propanoic acid, CSC[C@H](N[*:1])C(=O)[*:2]; Sni = (S)-nipecotic acid, O=C([C@H]1CCCN([*:1])C1)[*:2]; Pro(trans-4-Ph) = O=C(O)[C@@H]1C[C@@H](c2ccccc2)CN1; Azetidine3carboxylic = O=C(C1CN([*:1])C1)[*:2]; Phe(3-Cl) = N[C@@H](Cc1cccc(Cl)c1)C(=O)O; Pro(cis-4-F) = O=C(O)[C@@H]1C[C@H](F)CN1; Pro(4S-NH2) = N[C@@H]1CN[C@H](C(=O)O)C1; cisHyp = O=C(O)[C@@H]1C[C@H](O)CN1; Hyp = O=C(O)[C@@H]1C[C@@H](O)CN1; NMeF = CN[C@@H](Cc1ccccc1)C(=O)O; tBuAla = CC(C)(C)C[C@H](N)C(=O)O; Cha = N[C@@H](CC1CCCCC1)C(=O)O; NMeL = CN[C@@H](CC(C)C)C(=O)O; d(αMeP) = C[C@]1(C(=O)O)CCCN1; hLeu = CC(C)CC[C@H](N)C(=O)O; Nle = CCCC[C@H](N)C(=O)O; Octanoyl = CCCCCCCC(=O)*; Thz = O=C(O)[C@@H]1CSCN1; Nva = CCC[C@H](N)C(=O)O; dAze = O=C(O)[C@H]1CCN1; Hexanoyl = CCCCCC(=O)*; Ac3c = NC1(C(=O)O)CC1; Aib = CC(C)(N)C(=O)O; Occ = octanoic acid; Sar = CNCC(=O)O

T1: natriuretic peptide receptor-B (human)
T1 chain: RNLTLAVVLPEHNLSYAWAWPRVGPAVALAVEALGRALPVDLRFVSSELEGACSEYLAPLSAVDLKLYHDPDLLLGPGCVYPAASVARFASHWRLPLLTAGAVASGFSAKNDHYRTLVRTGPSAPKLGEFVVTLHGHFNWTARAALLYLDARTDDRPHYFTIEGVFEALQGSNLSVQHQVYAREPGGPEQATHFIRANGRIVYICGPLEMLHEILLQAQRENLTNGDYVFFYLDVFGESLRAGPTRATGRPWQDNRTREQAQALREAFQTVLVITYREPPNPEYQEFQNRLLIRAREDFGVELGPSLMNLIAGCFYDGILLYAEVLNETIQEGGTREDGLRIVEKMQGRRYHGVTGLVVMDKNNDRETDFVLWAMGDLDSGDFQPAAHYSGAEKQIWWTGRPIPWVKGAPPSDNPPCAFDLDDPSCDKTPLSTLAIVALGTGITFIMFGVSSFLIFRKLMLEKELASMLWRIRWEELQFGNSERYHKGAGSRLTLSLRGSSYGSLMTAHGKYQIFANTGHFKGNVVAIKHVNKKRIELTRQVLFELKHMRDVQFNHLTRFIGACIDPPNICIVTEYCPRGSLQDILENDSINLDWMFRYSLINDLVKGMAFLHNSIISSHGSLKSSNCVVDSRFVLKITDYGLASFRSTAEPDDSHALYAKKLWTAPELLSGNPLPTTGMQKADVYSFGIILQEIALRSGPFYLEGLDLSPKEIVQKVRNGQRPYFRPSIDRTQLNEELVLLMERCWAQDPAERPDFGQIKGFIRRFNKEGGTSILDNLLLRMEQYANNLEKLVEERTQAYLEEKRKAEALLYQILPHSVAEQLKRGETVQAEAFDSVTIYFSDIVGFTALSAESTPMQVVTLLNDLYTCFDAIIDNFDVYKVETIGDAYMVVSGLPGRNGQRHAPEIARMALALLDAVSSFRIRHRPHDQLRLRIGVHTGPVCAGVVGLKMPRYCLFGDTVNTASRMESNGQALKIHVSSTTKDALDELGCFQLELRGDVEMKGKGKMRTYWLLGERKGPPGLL

B1: JAL-0978 (peptide)
peptide: [Occ]AFGL[Pro(cis-4-F)]LDRI-NH2
modifications: not fully specified (residue 2); printed as Occ-ala-Phe-Gly-Leu-Fpr-Leu-Asp-Arg-Ile-NH2
B2: JAL-0895 (peptide)
peptide: Octanoyl-AFGLP[NMeL]DRI-NH2
modifications: not fully specified (some residues); printed as Occ-ala-Phe-Gly-Leu-Pro-Nml-Asp-Arg-Ile-NH2
B3: JAL-0894 (peptide)
peptide: Octanoyl-AFGLPIDRI-NH2
modifications: not fully specified (some residues); printed as Occ-ala-Phe-Gly-Leu-Pro-Ile-Asp-Arg-Ile-NH2
B4: JAL-0903 (peptide)
peptide: Octanoyl-AFG[tBuAla]PLDRI-NH2
modifications: not fully specified (some residues); printed as Occ-ala-Phe-Gly-Npg-Pro-Leu-Asp-Arg-Ile-NH2
B5: JAL-0921 (peptide)
peptide: [Occ]AFGLPLD[Nmr]I-NH2
modifications: not fully specified (residue 2); printed as Occ-ala-Phe-Gly-Leu-Pro-Leu-Asp-Nmr-Ile-NH2
B6: JAL-0943 (peptide)
peptide: [Occ]AF[Aib]LPLDRI-NH2
modifications: not fully specified (residue 2); printed as Occ-ala-Phe-Aib-Leu-Pro-Leu-Asp-Arg-Ile-NH2
B7: JAL-0926 (peptide)
peptide: [Occ]AFGLPL[Nva]RI-NH2
modifications: not fully specified (residue 2); printed as Occ-ala-Phe-Gly-Leu-Pro-Leu-Nva-Arg-Ile-NH2
B8: JAL-0974 (peptide)
peptide: [Occ]AFGL[Pro(4S-NH2)]LDRI-NH2
modifications: not fully specified (residue 2); printed as Occ-ala-Phe-Gly-Leu-Apr-Leu-Asp-Arg-Ile-NH2
B9: JAL-0940 (peptide)
peptide: [Occ]AFG[Cha]PLDRI-NH2
modifications: not fully specified (residue 2); printed as Occ-ala-Phe-Gly-Cha-Pro-Leu-Asp-Arg-Ile-NH2
B10: JAL-0906 (peptide)
peptide: [Occ]AXGLPLDRI-NH2
modifications: not fully specified (residues 2, 3); printed as Occ-ala-Nmf-Gly-Leu-Pro-Leu-Asp-Arg-Ile-NH2
B11: JAL-0927 (peptide)
peptide: [Occ]AFGLPLVRI-NH2
modifications: not fully specified (residue 2); printed as Occ-ala-Phe-Gly-Leu-Pro-Leu-Val-Arg-Ile-NH2
B12: JAL-0898 (peptide)
peptide: Octanoyl-AFGL[Hyp]LDRI-NH2
modifications: not fully specified (some residues); printed as Occ-ala-Phe-Gly-Leu-Hyp-Leu-Asp-Arg-Ile-NH2
B13: JAL-0942 (peptide)
peptide: [Occ]AFG[Nle]PLDRI-NH2
modifications: not fully specified (residue 2); printed as Occ-ala-Phe-Gly-Nle-Pro-Leu-Asp-Arg-Ile-NH2
B14: JAL-0980 (peptide)
peptide: [Occ]AFGL[Thz]LDRI-NH2
modifications: not fully specified (residue 2); printed as Occ-ala-Phe-Gly-Leu-Eaz-Leu-Asp-Arg-Ile-NH2
B15: JAL-0896 (peptide)
peptide: Octanoyl-AFGLP[tBuAla]DRI-NH2
modifications: not fully specified (some residues); printed as Occ-ala-Phe-Gly-Leu-Pro-Npg-Asp-Arg-Ile-NH2
B16: JAL-0929 (peptide)
peptide: [Occ]AFGLPLTRI-NH2
modifications: not fully specified (residue 2); printed as Occ-ala-Phe-Gly-Leu-Pro-Leu-Thr-Arg-Ile-NH2
B17: JAL-0924 (peptide)
peptide: [Occ]AFGLPLNRI-NH2
modifications: not fully specified (residue 2); printed as Occ-ala-Phe-Gly-Leu-Pro-Leu-Asn-Arg-Ile-NH2
B18: JAL-0979 (peptide)
peptide: [Occ]AFGL[Dtp]LDRI-NH2
modifications: not fully specified (residue 2); printed as Occ-ala-Phe-Gly-Leu-Dtp-Leu-Asp-Arg-Ile-NH2
B19: JAL-0975 (peptide)
peptide: [Occ]AFGL[Pro(trans-4-Ph)]LDRI-NH2
modifications: not fully specified (residue 2); printed as Occ-ala-Phe-Gly-Leu-Eay-Leu-Asp-Arg-Ile-NH2

Target: T1, natriuretic peptide receptor-B
Experiment: cell-based or functional assay

Row | Binder | EC50 group, cGMP in GTM-3 cells [µM]
1 | B1 | ≤ 15
2 | [Occ][dP][NMeF]GLP[NMeL]DRI-NH2 [JAL-0957] | ≤ 15
3 | B2 | ≤ 5
4 | B3 | ≤ 15
5 | B4 | ≤ 15
6 | [Occ][dA]FGLP[hLeu]DRI-NH2 [JAL-0959] | ≤ 15
7 | B5 | ≤ 15
8 | B6 | ≤ 15
9 | B7 | ≤ 15
10 | [Occ][Azetidine3carboxylic]FGLPLDRI-NH2 [JAL-0985] | ≤ 15
11 | [Occ][Sni][NMeF]GLPLDRI-NH2 [JAL-0967_01] | ≤ 15
12 | Hexanoyl-[Ebe][dP]FGLPIDRIS[Ebe]-NH2 [JAL-0533] | ≤ 15
13 | B8 | ≤ 5
14 | B9 | ≤ 15
15 | [Occ][dP][NMeF]GLPLDRI-NH2 [JAL-0966] | ≤ 15
16 | B10 | ≤ 15
17 | B11 | ≤ 15
18 | [Occ][dA][NMeF]GLP[NMeL]DRI-NH2 [JAL-0954] | ≤ 5
19 | [Occ]GFGLPLDRI-NH2 [JAL-0951] | ≤ 15

Row | Binder | EC50 group, cGMP in GTM-3 cells [µM]
20 | [Occ][dA]F[dA]LPLDRI-NH2 [JAL-0944] | ≤ 15
21 | B12 | ≤ 5
22 | [Occ][dA]F[Ac3c]LPLDRI-NH2 [JAL-0945] | ≤ 15
23 | [Occ][Sni][NMeF]GLP[NMeL]DRI-NH2 [JAL-0958_01] | ≤ 5
24 | [Occ][dA][Phe(3-Cl)]GLPLDRI-NH2 [JAL-0946] | ≤ 15
25 | [Occ][dA]FGL[d(αMeP)]LDRI-NH2 [JAL-0962] | ≤ 15
26 | B13 | ≤ 15
27 | [Occ][dP]FGLP[NMeL]DRI-NH2 [JAL-0955_01] | ≤ 5
28 | [Occ][Sar]FGLPLDRI-NH2 [JAL-0950] | ≤ 15
29 | [Occ][dA]FGL[cisHyp]LDRI-NH2 [JAL-0964] | ≤ 15
30 | [Occ][Sni]FGLP[NMeL]DRI-NH2 [JAL-0956] | ≤ 5
31 | B14 | ≤ 15
32 | B15 | ≤ 15
33 | [Occ][dAze]FGLPLDRI-NH2 [JAL-0953] | ≤ 5
34 | B16 | ≤ 15
35 | B17 | ≤ 15
36 | B18 | ≤ 15
37 | B19 | ≤ 15
